Data taken from paper PMC4771823, “How the oxygen tolerance of a [NiFe]-hydrogenase depends on quaternary structure” (Journal of Biological Inorganic Chemistry, 2016).

Molecular target: the molecule itself
Assay: SEC; Superdex 200 HR 10/30, running buffer with 0.02 % Triton X-100, pH 7.0, 50 mM sodium phosphate, 0.10 M NaCl, 4 °C, 0.15 mL/min; column calibrated with protein standards; dimer peak run again after 5 days at 4 °C; fractions analysed by SDS-PAGE; (αβ)2 dimer to (αβ) monomers

B1: Hydrogenase-1 from E. coli, (αβ) heterodimer of large and small subunit (complex)
chain 1: MSTQYETQGYTINNAGRRLVVDPITRIEGHMRCEVNINDQNVITNAVSCGTMFRGLEIILQGRDPRDAWAFVERICGVCTGVHALASVYAIEDAIGIKVPDNANIIRNIMLATLWCHDHLVHFYQLAGMDWIDVLDALKADPRKTSELAQSLSSWPKSSPGYFFDVQNRLKKFVEGGQLGIFRNGYWGHPQYKLPPEANLMGFAHYLEALDFQREIVKIHAVFGGKNPHPNWIVGGMPCAINIDESGAVGAVNMERLNLVQSIITRTADFINNVMIPDALAIGQFNKPWSEIGTGLSDKCVLSYGAFPDIANDFGEKSLLMPGGAVINGDFNNVLPVDLVDPQQVQEFVDHAWYRYPNDQVGRHPFDGITDPWYNPGDVKGSDTNIQQLNEQERYSWIKAPRWRGNAMEVGPLARTLIAYHKGDAATVESVDRMMSALNLPLSGIQSTLGRILCRAHEAQWAAGKLQYFFDKLMTNLKNGNLATASTEKWEPATWPTECRGVGFTEAPRGALGHWAAIRDGKIDLYQCVVPTTWNASPRDPKGQIGAYEAALMNTKMAIPEQPLEILRTLHSFDPCLACSTH
chain 2: LENKPRIPVVWIHGLECTCCTESFIRSAHPLAKDVILSLISLDYDDTLMAAAGTQAEEVFEDIITQYNGKYILAVEGNPPLGEQGMFCISSGRPFIEKLKRAAAGASAIIAWGTCASWGCVQAARPNPTQATPIDKVITDKPIIKVPGCPPIPDVMSAIITYMVTFDRLPDVDRMGRPLMFYGQRIHDKCYRRAHFDAGEFVQSWDDDAARKGYCLYKMGCKGPTTYNACSSTRWNDGVSFPIQSGHGCLGCAENGFWDRGSFYSRVVDIPQMGTHSTADTVGLTALGVVAAAVGVHAVASAVDQRRRHNQQPTETEHQPGNEDKQA
notes: large (α) subunit of E. coli Hydrogenase-1, holds the [NiFe] active site; printed mass 64.6 kDa; small (β) subunit of E. coli Hydrogenase-1, holds the FeS clusters; printed mass 36.8 kDa; Purified by Ni-NTA, so one subunit should carry a His tag; Cytochrome b subunits are said to be normally lost during homogenisation; Two copies of this heterodimer form the (αβ)2 dimer; also called Hyd-1; Hyd-1 …
stoichiometry N: 2
